Patent US11994512B2, “Single-cell genomic methods to generate ex vivo cell systems that recapitulate in vivo biology with improved fidelity” (Massachusetts Institute of Technology, priority 2018, dated 2024)

B1: P40338 (protein, UniProt P40338 1-181, looked up)
chain: MPRKAASPEEAAGEPGPEEMEAGRPRPVLRSVNSREPSQVIFCNRSPRVVLPLWLNFDGEPQPYPILPPGTGRRIHSYRGHLWLFRDAGTHDGLLVNQTELFVPSLNVDGQPIFANITLPVYTLKERCLQVVRSLVKPENYRRLDIVRSLYEDLEDYPSVRKDIQRLSQEHLESQHLEEEP
modifications: full-length
B2: P43883 (protein, UniProt P43883 1-425, looked up)
chain: MAAAVVDPQQSVVMRVANLPLVSSTYDLVSSAYVSTKDQYPYLRSVCEMAEKGVKTVTSAAMTSALPIIQKLEPQIAVANTYACKGLDRMEERLPILNQPTSEIVASARGAVTGAKDVVTTTMAGAKDSVASTVSGVVDKTKGAVTGSVERTKSVVNGSINTVLGMVQFMNSGVDNAITKSELLVDQYFPLTQEELEMEAKKVEGFDMVQKPSNYERLESLSTKLCSRAYHQALSRVKEAKQKSQETISQLHSTVHLIEFARKNMHSANQKIQGAQDKLYVSWVEWKRSIGYDDTDESHCVEHIESRTLAIARNLTQQLQTTCQTVLVNAQGLPQNIQDQAKHLGVMAGDIYSVFRNAASFKEVSDGVLTSSKGQLQKMKESLDEVMDYFVNNTPLNWLVGPFYPQSTEVNKASLKVQQSEVKAQ
modifications: full-length
B3: P27600 (protein, UniProt P27600 1-379, looked up)
chain: MSGVVRTLSRCLLPAEAGARERRAGAARDAEREARRRSRDIDALLARERRAVRRLVKILLLGAGESGKSTFLKQMRIIHGREFDQKALLEFRDTIFDNILKGSRVLVDARDKLGIPWQHSENEKHGMFLMAFENKAGLPVEPATFQLYVPALSALWRDSGIREAFSRRSEFQLGESVKYFLDNLDRIGQLNYFPSKQDILLARKATKGIVEHDFVIKKIPFKMVDVGGQRSQRQKWFQCFDGITSILFMVSSSEYDQVLMEDRRTNRLVESMNIFETIVNNKLFFNVSIILFLNKMDLLVEKVKSVSIKKHFPDFKGDPHRLEDVQRYLVQCFDRKRRNRSKPLFHHFTTAIDTENIRFVFHAVKDTILQENLKDIMLQ
modifications: full-length
B4: P48036 (protein, UniProt P48036 1-319, looked up)
chain: MATRGTVTDFPGFDGRADAEVLRKAMKGLGTDEDSILNLLTSRSNAQRQEIAQEFKTLFGRDLVDDLKSELTGKFEKLIVAMMKPSRLYDAYELKHALKGAGTDEKVLTEIIASRTPEELSAIKQVYEEEYGSNLEDDVVGDTSGYYQRMLVVLLQANRDPDTAIDDAQVELDAQALFQAGELKWGTDEEKFITIFGTRSVSHLRRVFDKYMTISGFQIEETIDRETSGNLEQLLLAVVKSIRSIPAYLAETLYYAMKGAGTDDHTLIRVVVSRSEIDLFNIRKEFRKNFATSLYSMIKGDTSGDYKKALLLLCGGEDD
modifications: full-length
B5: P19467 (protein, UniProt P19467 1-573, looked up)
chain: MKGFLLLSLSLLLVTVGSSSQASSTTSSSGGTSPPTTVQSQSPGSSSQASTTTSSSGGASPPTTVQSQSPGSSSQASTTTSSSGGASPPTTVQSQSPGSSSQASTTTSSSGGASPPTTVQSQSPGSSSQASTTTSSSGGASPPTTVQSQSPGSSSQASTTTSSSGGASPPTTVQSQSPGSSSQVSTTTSSSGGASPPTTVQSQSPGSSSQPGPTQPSGGASSSTVPSGGSTGPSDLCNPNPCKGTASCVKLHSKHFCLCLEGYYYNSSLSSCVKGTTFPGDISMSVSETANLEDENSVGYQELYNSVTDFFETTFNKTDYGQTVIIKVSTAPSRSARSAMRDATKDVSVSVVNIFGADTKETEKSVSSAIETAIKTSGNVKDYVSINLCDHYGCVGNDSSKCQDILQCTCKPGLDRLNPQVPFCVAVTCSQPCNAEEKEQCLKMDNGVMDCVCMPGYQRANGNRKCEECPFGYSGMNCKDQFQLILTIVGTIAGALILILLIAFIVSARSKNKKKDGEEQRLIEDDFHNLRLRQTGFSNLGADNSIFPKVRTGVPSQTPNPYANQRSMPRPDY
modifications: full-length
B6: P23881 (protein, UniProt P23881 1-347, looked up)
chain: MGLEEELLRIAKKLEKMVSRKKTEGALDLLKKLNSCQMSIQLLQTTRIGVAVNGVRKHCSDKEVVSLAKVLIKNWKRLLDSPRTTKGEREEREKAKKEKGLGCSDWKPEAGLSPPRKKGGGEPKTRRDSVDSRSSTTSSPKRPSLERSNSSKSKVETPTTPSSPSTPTFAPAVCLLAPCYLTGDSVRDKCVEMLSAALKAEDNFKDYGVNCDKLASEIEDHIYQELKSTDMKYRNRVRSRISNLKDPRNPGLRRNVLSGAISPELIAKMTAEEMASDELRELRNAMTQEAIREHQMAKTGGTTTDLLRCSKCKKKNCTYNQVQTRSADEPMTTFVLCNECGNRWKFC
modifications: full-length
B7: P30681 (protein, UniProt P30681 1-210, looked up)
chain: MGKGDPNKPRGKMSSYAFFVQTCREEHKKKHPDSSVNFAEFSKKCSERWKTMSAKEKSKFEDLAKSDKARYDREMKNYVPPKGDKKGKKKDPNAPKRPPSAFFLFCSENRPKIKIEHPGLSIGDTAKKLGEMWSEQSAKDKQPYEQKAAKLKEKYEKDIAAYRAKGKSEAGKKGPGRPTGSKKKNEPEDEEEEEEEEEEEDDEEEEEDEE
modifications: full-length
B8: P19246 (protein, UniProt P19246 1-1090, looked up)
chain: MMSFGSADALLGAPFAPLHGGGSLHYSLSRKAGPGGTRSAAGSSSGFHSWARTSVSSVSASPSRFRGAASSTDSLDTLSNGPEGCVVAAVAARSEKEQLQALNDRFAGYIDKVRQLEAHNRSLEGEAAALRQQQAGRAAMGELYEREVREMRGAVLRLGAARGQLRLEQEHLLEDIAHVRQRLDEEARQREEAEAAARALARFAQEAEAARVELQKKAQALQEECGYLRRHHQEEVGELLGQIQGCGAAQAQAQAEARDALKCDVTSALREIRAQLEGHAVQSTLQSEEWFRVRLDRLSEAAKVNTDAMRSAQEEITEYRRQLQARTTELEALKSTKESLERQRSELEDRHQADIASYQDAIQQLDSELRNTKWEMAAQLREYQDLLNVKMALDIEIAAYRKLLEGEECRIGFGPSPFSLTEGLPKIPSISTHIKVKSEEMIKVVEKSEKETVIVEGQTEEIRVTEGVTEEEDKEAQGQEGEEAEEGEEKEEEEGAAATSPPAEEAASPEKETKSRVKEEAKSPGEAKSPGEAKSPAEAKSPGEAKSPGEAKSPGEAKSPAEPKSPAEPKSPAEAKSPAEPKSPATVKSPGEAKSPSEAKSPAEAKSPAEAKSPAEAKSPAEAKSPAEAKSPAEAKSPATVKSPGEAKSPSEAKSPAEAKSPAEAKSPAEAKSPAEVKSPGEAKSPAEPKSPAEAKSPAEVKSPAEAKSPAEVKSPGEAKSPAAVKSPAEAKSPAAVKSPGEAKSPGEAKSPAEAKSPAEAKSPIEVKSPEKAKTPVKEGAKSPAEAKSPEKAKSPVKEDIKPPAEAKSPEKAKSPVKEGAKPPEKAKPLDVKSPEAQTPVQEEAKHPTDIRPPEQVKSPAKEKAKSPEKEEAKTSEKVAPKKEEVKSPVKEEVKAKEPPKKVEEEKTLPTPKTEAKESKKDEAPKEAPKPKVEEKKETPTEKPKDSTAEAKKEEAGEKKKAVASEEETPAKLGVKEEAKPKEKTETTKTEAEDTKAKEPSKPTETEKPKKEEMPAAPEKKDTKEEKTTESRKPEEKPKMEAKVKEDDKSLSKEPSKPKTEKAEKSSSTDQKESQPPEKTTEDKATKGEK
modifications: full-length
B9: P43137 (protein, UniProt P43137 1-165, looked up)
chain: MARNAYFILLSCLIVLSPSQGQEAEEDLPSARISCPEGSNAYSSYCYYFTEDRLTWADADLFCQNMNSGYLVSVLSQAEGNFVASLIKESGTTDANVWTGLHDPKRNRRWHWSSGSLFLYKSWATGSPNSSNRGYCVSLTSNTGYKKWKDDNCDAQYSFVCKFKG
modifications: full-length
B10: P31362 (protein, UniProt P31362 1-431, looked up)
chain: MVNLEPMHTEIKMSGDVADSTDTRSTFGQVEPGNDRNGLDFNRQIKTEDLGDSLQQTLSHRPCHLSQGPTMMPGNQMSGDMASLHPLQQLVLVPGHLQSVSQFLLSQTPPGQQGLQPNLLSFPQQQSTLLLPQTGPGLASQAVGRPGLSGSSLEPHLDAPQHLPGPKHLPGPGGNDEPTDLEELEKFAKTFKQRRIKLGFTQGDVGLAMGKLYGNDFSQTTISRFEALNLSFKNMCKLKPLLEKWLNDAESSPSDPSASTPSSYPTLSEVFGRKRKKRTSIETNIRLTLEKRFQDNPKPSSEEISMIAEQLSMEKEVVRVWFCNRRQKEKRINCPVATPVKPPIYNSRLVSPSGSLGPLSVPPVHSTMPGTVTSSCSPGNNSRPSSPGSGLHASSPTASQNNSKAAMNSSSSSSFNSSGSWYRWNHPTYLH
modifications: full-length

System: intracellular proteome of ENR+CD and ENR organoids
Assay: LC-MS/MS TMT proteomics of ENR+CD versus ENR organoids
Type: cell-based, C57BL/6 mice
Details: for Average logFC / M1-1 Log2 Median Normalized / M1-2 Log2 Median Normalized / M2-1 Log2 Median Normalized / M2-2 Log2 Median Normalized: protein abundance, ENR+CD versus ENR organoids; for Average logFC: aggregate of the four sample pairs; for M1-1 Log2 Median Normalized: replicate M1-1; for M1-1 Log2 Median Normalized / M1-2 Log2 Median Normalized / M2-1 Log2 Median Normalized / M2-2 Log2 Median Normalized: log2 ratio; for M1-2 Log2 Median Normalized: replicate M1-2; for M2-1 Log2 Median Normalized: replicate M2-1; for M2-2 Log2 Median Normalized: replicate M2-2; for change: up = enriched in ENR+CD, down = enriched in ENR, FDR<0.05 and log fold change cut-off

Row | Molecule | Average logFC | M1-1 Log2 Median Normalized | M1-2 Log2 Median Normalized | M2-1 Log2 Median Normalized | M2-2 Log2 Median Normalized | change
1 | B1 | −1.533 | −1.026 | −1.492 | −1.5695 | −2.043 | down
2 | B2 | 1.236 | 1.328 | 1.122 | 0.9365 | 1.559 | up
3 | B3 | −2.195 | −1.957 | −1.145 | −2.8495 | −2.827 | down
4 | B4 | 1.143 | 1.196 | 1.332 | 1.1055 | 0.94 | up
5 | B5 | 1.199 | 1.437 | 0.978 | 1.3955 | 0.984 | up
6 | B6 | −1.33 | −1.331 | −1.172 | −1.7775 | −1.12 | down
7 | B7 | −1.315 | −1.316 | −1.094 | −1.2715 | −1.62 | down
8 | B8 | 1.284 | 1.432 | 1.357 | 1.1695 | 1.176 | up
9 | B9 | −2.852 | −2.092 | −3.168 | −4.1035 | −2.045 | down
10 | B10 | −1.897 | −1.567 | −1.082 | −2.3845 | −2.554 | down
